Experimental data published in US12359237.
Positions count from the first letter of the chain named.

Assays:
[1] = test system: T1, 4SCSC7_4AAAA7 precursor peptide
T1 sequence: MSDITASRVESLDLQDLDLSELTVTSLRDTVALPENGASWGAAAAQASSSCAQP

[2] = test system: T2, C13A mutant precursor peptide of LazA*
T2 sequence: T1 sequence with A42S, A43C, A44S, A45C, C51A

[3] = test system: T3, S10A mutant precursor peptide of LazA*
T3 sequence: T1 sequence with A42S, A43C, A44S, A45C, S48A

[4] = test system: T4, S11A mutant precursor peptide of LazA*
T4 sequence: T1 sequence with A42S, A43C, A44S, A45C, S49A

[5] = test system: T5, S12A mutant precursor peptide of LazA*
T5 sequence: T1 sequence with A42S, A43C, A44S, A45C, S50A

In the case of “LazC (macrocyclase of lactazole biosynthesis, His-Tag-bound recombinant protein)”, the “leader peptide elimination (LC-MS chromatogram of the leader peptide cleaved off through LazC reaction)” value [1] is reported as “Leader peptide elimination was also seen in the 4SCSC7_4AAAA7 precursor peptide at a level equivalent to LazA*”, the “leader peptide cleaved off through LazC reaction (LC-MS chromatogram)” value [2] is reported as “A leader peptide cleaved off was slightly seen in S11A and C13A” and the “leader peptide cleaved off through LazC reaction (LC-MS chromatogram)” value [3] is reported as “Ser (10) and Cys (13) are also relatively important”. The “leader peptide cleaved off through LazC reaction (LC-MS chromatogram)” value [4] was “such a leader peptide was hardly seen in S11A and S12A” and the “leader peptide cleaved off through LazC reaction (LC-MS chromatogram)” value [5] was “such a leader peptide was hardly seen in S11A and S12A”.
